From US20240270846A1 (published 2024)
Residue numbers refer to the chain shown, from its start. Names and notes keep the numbering of the source.

B1: CE115HA000 V95K one-arm antibody (antibody, human IgG1, kappa, L234A L235A, N297A, name in Kabat numbering)
heavy: QVQLVESGGGVVQPGRSLRLSCAASGFTFSNAWMHWVRQAPGKGLEWVAQIKAKSNNYATYYAESVKGRFTISRDDSKNSLYLQMNSLKTEDTAVYYCRYKHYGAYYGVDAWGQGTTVTVSSASTKGPSVFPLAPSSKSTSGGTAALGCLVKDYFPEPVTVSWNSGALTSGVHTFPAVLQSSGLYSLSSVVTVPSSSLGTQTYICNVNHKPSNTKVDKKVEPKSCDKTHTCPPCPAPEAAGGPSVFLFPPKPKDTLMISRTPEVTCVVVDVSHEDPEVKFNWYVDGVEVHNAKTKPREEQYASTYRVVSVLTVLHQDWLNGKEYKCKVSNKALPAPIEKTISKAKGQPREPQVYTLPPSRCELTKNQVSLSCAVKGFYPSDIAVEWESNGQPENNYKTTPPVLDSDGSFFLVSKLTVDKSRWQQGNVFSCSVMHEALHNHYTQKSLSLSPDYKDDDDK
chain: EPKSSDKTHTCPPCPAPELLGGPSVFLFPPKPKDTLMISRTPEVTCVVVDVSHEDPEVKFNWYVDGVEVHNAKTKPREEQYNSTYRVVSVLTVLHQDWLNGKEYKCKVSNKALPAPIEKTISKAKGQPREPQVCTLPPSRDELTKNQVSLWCLVKGFYPSDIAVEWESNGQPENNYKTTPPVLDSDGSFFLYSKLTVDKSRWQQGNVFSCSVMHEALHNRYTQKSLSLSP
light: DIVMTQSPLSLPVTPGEPASISCRSSQSLVHSNRNTYLHWYQQKPGQAPRLLIYKVSNRFSGVPDRFSGSGSGTDFTLKISRVEAEDVGVYYCGQGTQVPYTFGQGTKLEIKRTVAAPSVFIFPPSDEQLKSGTASVVCLLNNFYPREAKVQWKVDNALQSGNSQESVTEQDSKDSTYSLSSTLTLSKADYEKHKVYACEVTHQGLSSPVTKSFNRGEC
notes: one-arm antibody
B2: CE115HA000 Y100aD one-arm antibody (antibody, human IgG1, kappa, L234A L235A, N297A, name in Kabat numbering)
heavy: B1 heavy with K101V, Y107D
chain: B1 chain
light: B1 light
notes: one-arm antibody
B3: CE115HA000 Y100S one-arm antibody (antibody, human IgG1, kappa, L234A L235A, N297A, name in Kabat numbering)
heavy: B1 heavy with K101V, Y106S
chain: B1 chain
light: B1 light
notes: one-arm antibody
B4: CE115HA000 Y100aQ one-arm antibody (antibody, human IgG1, kappa, L234A L235A, N297A, name in Kabat numbering)
heavy: B1 heavy with K101V, Y107Q
chain: B1 chain
light: B1 light
notes: one-arm antibody
B5: CE115HA000 Y100P one-arm antibody (antibody, human IgG1, kappa, L234A L235A, N297A, name in Kabat numbering)
heavy: B1 heavy with K101V, Y106P
chain: B1 chain
light: B1 light
notes: one-arm antibody
B6: CE115HA000 V100cE one-arm antibody (antibody, human IgG1, kappa, L234A L235A, N297A, name in Kabat numbering)
heavy: B1 heavy with K101V, V109E
chain: B1 chain
light: B1 light
notes: one-arm antibody
B7: CE115HA000 V100cD one-arm antibody (antibody, human IgG1, kappa, L234A L235A, N297A, name in Kabat numbering)
heavy: B1 heavy with K101V, V109D
chain: B1 chain
light: B1 light
notes: one-arm antibody
B8: CE115HA000 Y100D one-arm antibody (antibody, human IgG1, kappa, L234A L235A, N297A, name in Kabat numbering)
heavy: B1 heavy with K101V, Y106D
chain: B1 chain
light: B1 light
notes: one-arm antibody
B9: CE115HA000 Y100K one-arm antibody (antibody, human IgG1, kappa, L234A L235A, N297A, name in Kabat numbering)
heavy: B1 heavy with K101V, Y106K
chain: B1 chain
light: B1 light
notes: one-arm antibody
B10: CE115HA000 V95S one-arm antibody (antibody, human IgG1, kappa, L234A L235A, N297A, name in Kabat numbering)
heavy: B1 heavy with K101S
chain: B1 chain
light: B1 light
notes: one-arm antibody
B11: CE115HA000 Y100W one-arm antibody (antibody, human IgG1, kappa, L234A L235A, N297A, name in Kabat numbering)
heavy: B1 heavy with K101V, Y106W
chain: B1 chain
light: B1 light
notes: one-arm antibody
B12: CE115HA000 Y100aS one-arm antibody (antibody, human IgG1, kappa, L234A L235A, N297A, name in Kabat numbering)
heavy: B1 heavy with K101V, Y107S
chain: B1 chain
light: B1 light
notes: one-arm antibody
B13: CE115HA000 Y100V one-arm antibody (antibody, human IgG1, kappa, L234A L235A, N297A, name in Kabat numbering)
heavy: B1 heavy with K101V, Y106V
chain: B1 chain
light: B1 light
notes: one-arm antibody
B14: CE115HA000 Y100A one-arm antibody (antibody, human IgG1, kappa, L234A L235A, N297A, name in Kabat numbering)
heavy: B1 heavy with K101V, Y106A
chain: B1 chain
light: B1 light
notes: one-arm antibody
B15: CE115HA000 Y97D one-arm antibody (antibody, human IgG1, kappa, L234A L235A, N297A, name in Kabat numbering)
heavy: B1 heavy with K101V, Y103D
chain: B1 chain
light: B1 light
notes: one-arm antibody
B16: CE115HA000 V100cP one-arm antibody (antibody, human IgG1, kappa, L234A L235A, N297A, name in Kabat numbering)
heavy: B1 heavy with K101V, V109P
chain: B1 chain
light: B1 light
notes: one-arm antibody
B17: CE115HA000 Y100aA one-arm antibody (antibody, human IgG1, kappa, L234A L235A, N297A, name in Kabat numbering)
heavy: B1 heavy with K101V, Y107A
chain: B1 chain
light: B1 light
notes: one-arm antibody
B18: CE115HA000 Y97R one-arm antibody (antibody, human IgG1, kappa, L234A L235A, N297A, name in Kabat numbering)
heavy: B1 heavy with K101V, Y103R
chain: B1 chain
light: B1 light
notes: one-arm antibody
B19: CE115HA000 Y100aL one-arm antibody (antibody, human IgG1, kappa, L234A L235A, N297A, name in Kabat numbering)
heavy: B1 heavy with K101V, Y107L
chain: B1 chain
light: B1 light
notes: one-arm antibody
B20: CE115HA000 Y97S one-arm antibody (antibody, human IgG1, kappa, L234A L235A, N297A, name in Kabat numbering)
heavy: B1 heavy with K101V, Y103S
chain: B1 chain
light: B1 light
notes: one-arm antibody
B21: CE115HA000 Y100L one-arm antibody (antibody, human IgG1, kappa, L234A L235A, N297A, name in Kabat numbering)
heavy: B1 heavy with K101V, Y106L
chain: B1 chain
light: B1 light
notes: one-arm antibody
B22: CE115HA000 Y97P one-arm antibody (antibody, human IgG1, kappa, L234A L235A, N297A, name in Kabat numbering)
heavy: B1 heavy with K101V, Y103P
chain: B1 chain
light: B1 light
notes: one-arm antibody
B23: CE115HA000 Y100aF one-arm antibody (antibody, human IgG1, kappa, L234A L235A, N297A, name in Kabat numbering)
heavy: B1 heavy with K101V, Y107F
chain: B1 chain
light: B1 light
notes: one-arm antibody
B24: CE115HA000 Y100G one-arm antibody (antibody, human IgG1, kappa, L234A L235A, N297A, name in Kabat numbering)
heavy: B1 heavy with K101V, Y106G
chain: B1 chain
light: B1 light
notes: one-arm antibody
B25: CE115HA000 Y100Q one-arm antibody (antibody, human IgG1, kappa, L234A L235A, N297A, name in Kabat numbering)
heavy: B1 heavy with K101V, Y106Q
chain: B1 chain
light: B1 light
notes: one-arm antibody
B26: CE115HA000 Y100aG one-arm antibody (antibody, human IgG1, kappa, L234A L235A, N297A, name in Kabat numbering)
heavy: B1 heavy with K101V, Y107G
chain: B1 chain
light: B1 light
notes: one-arm antibody
B27: CE115HA000 Y100aK one-arm antibody (antibody, human IgG1, kappa, L234A L235A, N297A, name in Kabat numbering)
heavy: B1 heavy with K101V, Y107K
chain: B1 chain
light: B1 light
notes: one-arm antibody

The binders below were run against T1, CD3 epsilon homodimer protein (UniProt P07766 23-126) (assay: SPR (Biacore T200), CD3 epsilon homodimer on CM4 chip, one-arm antibody as analyte; ratio to unaltered CE115HA000;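 also: surface plasmon resonance run at 25 °C with HBS-EP+ as running buffer, CD3 epsilon homodimer attached by amine coupling, antibody passed over as analyte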).
T1 construct: Construct of the homodimer protein is not described; also called CD3 (CD3 epsilon)
T1 sequence (P07766 23-126): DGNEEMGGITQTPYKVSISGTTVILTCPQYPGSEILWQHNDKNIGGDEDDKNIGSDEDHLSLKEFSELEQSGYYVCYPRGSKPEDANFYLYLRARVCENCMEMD

Binder | KD ratio (KD value of CE115HA000/KD value of the altered form)
B1 | 1.15
B2 | 1.2
B3 | 0.7
B4 | 0.51
B5 | 1.3
B6 | 1.31
B7 | 1.64
B8 | 0.63
B9 | 0.93
B10 | 4.61
B11 | 0.96
B12 | 0.59
B13 | 0.92
B14 | 0.92
B15 | 64.7
B16 | 0.97
B17 | 0.66
B18 | 23200
B19 | 0.57
B20 | 1180
B21 | 0.67
B22 | 12400
B23 | 0.98
B24 | 0.97
B25 | 0.77
B26 | 1.01
B27 | 0.79
